Measurements reported in patent publication US20200181248A1 (Chugai, published 2020).

Molecular target: T1, soluble form of human GPC3 (lacking the C-terminal hydrophobic region 564-580, Flag-tagged, heparan sulfate … (human, UniProt P51654 25-563, heparan sulfate modification (smear-like band of 50 to 300 kDa)))
T1 construct: also called soluble form of GPC3; purified soluble form of GPC3; not shown: Flag tag from vector pCXND2-Flag
Experiment: sandwich ELISA: the concentration varied is that of soluble GPC3 ('GPC3 hepa'); M6B1 coated as capture, biotin-labeled M18D4 as detection

T1 sequence (P51654 25-563, form in doubt): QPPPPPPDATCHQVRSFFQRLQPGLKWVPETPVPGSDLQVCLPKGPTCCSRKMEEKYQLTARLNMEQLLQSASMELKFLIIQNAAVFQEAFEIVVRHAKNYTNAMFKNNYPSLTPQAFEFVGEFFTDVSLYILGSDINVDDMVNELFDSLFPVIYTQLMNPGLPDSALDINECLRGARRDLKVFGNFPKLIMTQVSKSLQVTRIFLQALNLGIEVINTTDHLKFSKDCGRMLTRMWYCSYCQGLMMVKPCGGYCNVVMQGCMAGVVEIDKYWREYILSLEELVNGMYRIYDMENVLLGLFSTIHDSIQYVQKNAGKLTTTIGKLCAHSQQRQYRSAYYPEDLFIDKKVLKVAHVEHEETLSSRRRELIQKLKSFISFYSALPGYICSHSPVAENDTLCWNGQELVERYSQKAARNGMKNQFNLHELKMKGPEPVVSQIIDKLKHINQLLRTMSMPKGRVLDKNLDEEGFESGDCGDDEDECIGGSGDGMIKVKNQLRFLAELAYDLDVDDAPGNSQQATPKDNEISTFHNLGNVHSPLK

EC50 (read off the curve): ~0.02 µg/mL
B1: M6B1 (antibody, V domains shown)
VH: EVQLVESGGDLVKPGGSLKLSCAASGFTFSSYAMSWVRQTPEKRLEWVAAINSNGGTTYYPDTMKDRFTISRDNAKNTLYLQMSSLRSEDSALYYCTRHNGGYENYGWFAYWGQGTLVTVSA
VL: DIQMTQSPSSLSASLGGKVTITCKASQDINKNIIWYQHKPGKGPRLLIWYTSTLQPGIPSRFSGSGSGRDYSFSISNLEPEDIATYYCLQYDNLPRTFGGGTKLEIK
